Reference: patent US20090203610A1, “METHODS OF TREATING OBESITY OR DIABETES USING NT-4/5” (RINAT NEUROSCIENCE CORPORATION, priority 2004, published 2009)

Legend:
db/db mice [1] = test: HbA1c in db/db mice (Example 1); type: in vivo; conditions: for HbA1c level decrease at T26: T26 as compared to T0; for HbA1c T0: day 0, before treatment; for HbA1c T0 / HbA1c T12 / HbA1c % effect T12-T0 / HbA1c T26 / HbA1c % effect T26-T0: NT-4/5 20 mg/kg s.c., Rosiglitazone 3 mg/kg p.o.; for HbA1c T12: day 12; for HbA1c % effect T12-T0: day 12 vs day 0; for HbA1c T26: day 26; for HbA1c % effect T26-T0: day 26 vs day 0
Description: A difference was considered significant for p<0.05.
HbA1c levels were determined using an HbA1c kit (ref. 650262, Beckman Coulter, France) and a Synchron CX4 synchronizer. HbA1c is an indicator for blood glucose control over the last 2-3 months. The normal level of HbA1c in C57BL/6J mouse (determined by measuring 8 normal healthy C57BL/6J mice) was about 3.5%.

db/db mice [2] = test: Blood triglyceride levels in db/db mice (Example 1); type: in vivo; conditions: for triglycerides levels T0: day 0, before treatment; for triglycerides levels T0 / triglycerides levels T5 / triglycerides % effect T5-T0 / triglycerides levels T12 / triglycerides % effect T12-T0 / triglycerides levels T19 / triglycerides % effect T19-T0 / triglycerides levels T26 / triglycerides % effect T26-T0: NT-4/5 20 mg/kg s.c., Rosiglitazone 3 mg/kg p.o.; for triglycerides levels T5: day 5; for triglycerides % effect T5-T0: day 5 vs day 0; for triglycerides levels T12: day 12; for triglycerides % effect T12-T0: day 12 vs day 0; for triglycerides levels T19: day 19; for triglycerides % effect T19-T0: day 19 vs day 0; for triglycerides levels T26: day 26; for triglycerides % effect T26-T0: day 26 vs day 0
Description: Test animals: 24 female 10-12 weeks old db/db mice (C57BL/Ks J Rj-db/db, Janvier, France), weighing in the target range of 40-50 g, were used in this study. […] Upon receipt at animal facilities, they were housed 4 per cage covered with filtered caps and at least a 5-day acclimation period was observed.
The mice were divided into three groups of 8 mice each (groups 1-3). Each group was treated with vehicle (PBS) subcutaneously (s.c.), 3 mg/kg Rosiglitazone orally (p.o.), or 20 mg/kg NT-4/5 subcutaneously (s.c.). From day 1 to day 5 (T1-T5) and then from day 8 to day 12 (T8-T12), the mice in groups 2 and 3 were dosed once daily for 5 consecutive days, with a volume of 10 ml/kg.
Collection of samples for analysis: One day before beginning the treatment (T0), non fasted db/db mice were weighed and blood samples were collected through the retro-orbital plexus (about 300 μL/mouse) under isoflurane anesthesia. Similarly, at day 5 (T5), day 12 (T12), day 19 (T19) and day 26 (T26), two hours after the last administration, blood samples were collected through the retro-orbital plexus under isoflurane anesthesia in non fasted mice. […] An aliquot of serum was used for measuring glucose levels, the remaining was frozen until use.
Analysis of blood samples in db/db mice: Pre- and post dose serum levels of glucose, HbA1c, cholesterol and triglycerides, insulin, and non esterified fatty acids (NEFA), as well as aspirate amino-transferase (AST) and alanine amino-transferase activities (ALT) activities, were determined at different time points, as described further herein. At each time point and for each parameter, a mean % of the effect was calculated according to the following formula: ((T final−T initial)/T initial)*100. Statistical analysis was consistent in a one-way analysis of variance followed by multiple comparisons versus the vehicle group (Dunnett's test) on final values. In case the equal variance test fails, a Kruskall-Wallis one-way analysis of variance on ranks was conducted. A difference was considered significant for p<0.05.

human TrkC = molecular target: T1, human TrkC (Homo sapiens, UniProt Q16288); test: Receptor tyrosine phosphorylation in trkC expressing cell line; type: cell-based
T1 construct: expressed in transfected cells
Description: Assays of TrkB specific activation by pegylated NT-4/5: Stable cell lines expressing human TrkA, TrkB or TrkC were used to determine the functional activity, i.e. receptor phosphorylation, of NT-4/5 and pegylated NT-4/5 as previously described (Sadick et al. Experimental Cell Research 234: 354-361, 1997).
Assays of TrkB specific activation by pegylated NT-4/5: Stable cell lines expressing human TrkA, TrkB or TrkC were used to determine the functional activity, i.e. receptor phosphorylation, of NT-4/5 and different forms of pegylated NT-4/5 as previously described (Sadick et al. Experimental Cell Research 234: 354-361, 1997).

p75NTR = molecular target: T2, p75NTR (Homo sapiens, UniProt P08138); conditions: low affinity receptor (LNGFR, p75NTR); cited from earlier work
T2 sequence (P08138 29-427): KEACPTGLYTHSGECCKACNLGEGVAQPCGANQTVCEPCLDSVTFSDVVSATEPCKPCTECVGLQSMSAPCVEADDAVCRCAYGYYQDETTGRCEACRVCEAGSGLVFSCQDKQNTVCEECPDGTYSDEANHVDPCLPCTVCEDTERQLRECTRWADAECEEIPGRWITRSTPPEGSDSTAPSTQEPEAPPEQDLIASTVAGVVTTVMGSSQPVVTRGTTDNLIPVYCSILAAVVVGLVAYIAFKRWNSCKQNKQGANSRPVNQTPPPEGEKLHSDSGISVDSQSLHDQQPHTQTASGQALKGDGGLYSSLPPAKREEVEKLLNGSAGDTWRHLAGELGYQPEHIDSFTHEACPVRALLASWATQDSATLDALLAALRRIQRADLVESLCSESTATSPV

db/db mice [3] = test: Dose response of NT-4/5 on body weight and percentage change in body weight of db/db mice (Example 2, Tables 16, 17); type: in vivo; parameters: body weight: unit not given here; conditions: for body weight / percentage change in body weight: db/db mice, 12 week, female, mean
Description: Db/db mice maintained as described in Example 1 were divided into five groups (groups 1-5). Group 1 (7 mice) were administered with vehicle (PBS). Group 2 (7 mice), group 3 (8 mice), group 4 (8 mice), group 5 (8 mice) were each administered with NT-4/5 at the doses of 2 mg/kg, 5 mg/kg, 10 mg/kg, and 20 mg/kg, respectively. Both the vehicle and NT-4/5 were administered to each group of the mice subcutaneously once daily for five days. One day before beginning the treatment (T0), blood samples were collected from the mice as described previously for the determination of baseline levels of serum biomarkers (glucose, triglyceride, and cholesterol). Similarly, at day 6 (T6), blood samples were collected for the determination of serum biomarker levels. The blood samples were treated in the same manner as described in Example 1.
From two days before the treatment (T-1) to day 6 (T6), individual food intakes of the mice were measured daily. Individual body weights were also measured daily from 6 days before the treatment (T-5) to day 7 (T7).

T1 sequence (Q16288 32-839): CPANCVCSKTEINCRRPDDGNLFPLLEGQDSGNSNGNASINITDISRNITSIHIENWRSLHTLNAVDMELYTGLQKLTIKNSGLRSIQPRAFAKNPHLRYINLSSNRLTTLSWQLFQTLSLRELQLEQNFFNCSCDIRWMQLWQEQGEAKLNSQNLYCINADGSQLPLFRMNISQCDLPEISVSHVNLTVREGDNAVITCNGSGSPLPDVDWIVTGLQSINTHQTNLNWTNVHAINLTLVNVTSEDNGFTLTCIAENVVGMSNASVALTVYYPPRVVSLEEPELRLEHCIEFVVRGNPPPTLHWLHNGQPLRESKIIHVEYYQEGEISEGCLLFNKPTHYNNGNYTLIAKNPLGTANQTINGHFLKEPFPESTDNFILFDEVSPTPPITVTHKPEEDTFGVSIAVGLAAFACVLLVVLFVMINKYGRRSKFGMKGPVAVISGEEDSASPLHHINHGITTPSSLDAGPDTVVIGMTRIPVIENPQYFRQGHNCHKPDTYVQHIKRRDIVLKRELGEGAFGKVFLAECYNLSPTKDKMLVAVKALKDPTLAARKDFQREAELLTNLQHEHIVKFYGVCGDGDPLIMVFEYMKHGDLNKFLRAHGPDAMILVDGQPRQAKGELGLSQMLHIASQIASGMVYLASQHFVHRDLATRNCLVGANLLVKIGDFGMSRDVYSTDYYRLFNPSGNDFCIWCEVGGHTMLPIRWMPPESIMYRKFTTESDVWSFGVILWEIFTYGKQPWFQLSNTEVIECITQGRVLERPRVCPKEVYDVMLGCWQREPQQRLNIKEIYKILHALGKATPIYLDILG

CN(CCOc1ccc(CC2SC(=O)NC2=O)cc1)c1ccccn1 (centres unmarked) [Rosiglitazone, reference compound]
HbA1c level decrease at T12 (db/db mice [1]; T12 vs T0): 1% | HbA1c level decrease at T26 (db/db mice [1]): 9.6% | HbA1c T0 (db/db mice [1]): 5.74% | HbA1c T12 (db/db mice [1]): 5.69% | HbA1c % effect T12-T0 (db/db mice [1]): −1.0% | HbA1c T26 (db/db mice [1]): 5.18% | HbA1c % effect T26-T0 (db/db mice [1]): −9.6% | triglycerides levels T0 (db/db mice [2]): 1.39 mM | triglycerides levels T5 (db/db mice [2]): 0.81 mM | triglycerides % effect T5-T0 (db/db mice [2]): −30.1% | triglycerides levels T12 (db/db mice [2]): 0.61 mM | triglycerides % effect T12-T0 (db/db mice [2]): −51.0% | triglycerides levels T19 (db/db mice [2]): 0.64 mM | triglycerides % effect T19-T0 (db/db mice [2]): −46.1% | triglycerides levels T26 (db/db mice [2]): 1.58 mM | triglycerides % effect T26-T0 (db/db mice [2]): 23.4%

B1: NT-4/5: mature human neurotrophin-4/5 (SEQ ID NO:1), obtained from Genentech or produced in E. coli (protein, listed as Homo sapiens)
chain: GVSETAPASRRGELAVCDAVSGWVTDRRTAVDLRGREVEVLGEVPAAGGSPLRQYFFETRCKADNAEEGGPGAGGGGCRGVDRRHWVSECKAKQSYVRALTADAQGRVGWRWIRIDTACVCTLLSRTGRA
receptor tyrosine phosphorylation of trkC-expressing cell line (human TrkC): did not increase receptor tyrosine phosphorylation | Kd (p75NTR): 2 nM | body weight as compared to vehicle (db/db mice [3]; 2, 5, 10 and 20 mg/kg): significantly decreased body weight | body weight (db/db mice [3]; NT-4/5 2 mg/kg, Day 1): 39.66 | percentage change in body weight (db/db mice [3]; NT-4/5 2 mg/kg, Day 1): 101.83% | body weight (db/db mice [3]; NT-4/5 2 mg/kg, Day 3): 38.96 | percentage change in body weight (db/db mice [3]; NT-4/5 2 mg/kg, Day 3): 98.27% | body weight (db/db mice [3]; NT-4/5 2 mg/kg, Day 5): 38.17 | percentage change in body weight (db/db mice [3]; NT-4/5 2 mg/kg, Day 5): 96.24% | body weight (db/db mice [3]; NT-4/5 2 mg/kg, Day 7): 37.50 | percentage change in body weight (db/db mice [3]; NT-4/5 2 mg/kg, Day 7): 94.57% | body weight (db/db mice [3]; NT-4/5 2 mg/kg, Day −1): 38.94 | body weight (db/db mice [3]; NT-4/5 5 mg/kg, Day 1): 41.03 | percentage change in body weight (db/db mice [3]; NT-4/5 5 mg/kg, Day 1): 101.51% | body weight (db/db mice [3]; NT-4/5 5 mg/kg, Day 3): 39.26 | percentage change in body weight (db/db mice [3]; NT-4/5 5 mg/kg, Day 3): 95.71% | body weight (db/db mice [3]; NT-4/5 5 mg/kg, Day 5): 38.48 | percentage change in body weight (db/db mice [3]; NT-4/5 5 mg/kg, Day 5): 93.79% | body weight (db/db mice [3]; NT-4/5 5 mg/kg, Day 7): 37.00 | percentage change in body weight (db/db mice [3]; NT-4/5 5 mg/kg, Day 7): 90.15% | body weight (db/db mice [3]; NT-4/5 5 mg/kg, Day −1): 40.41 | body weight (db/db mice [3]; NT-4/5 10 mg/kg, Day 1): 39.99 | percentage change in body weight (db/db mice [3]; NT-4/5 10 mg/kg, Day 1): 101.07% | body weight (db/db mice [3]; NT-4/5 10 mg/kg, Day 3): 38.49 | percentage change in body weight (db/db mice [3]; NT-4/5 10 mg/kg, Day 3): 96.28% | body weight (db/db mice [3]; NT-4/5 10 mg/kg, Day 5): 37.35 | percentage change in body weight (db/db mice [3]; NT-4/5 10 mg/kg, Day 5): 93.43% | body weight (db/db mice [3]; NT-4/5 10 mg/kg, Day 7): 36.04 | percentage change in body weight (db/db mice [3]; NT-4/5 10 mg/kg, Day 7): 90.14% | body weight (db/db mice [3]; NT-4/5 10 mg/kg, Day −1): 39.58 | body weight (db/db mice [3]; NT-4/5 20 mg/kg, Day 1): 40.73 | percentage change in body weight (db/db mice [3]; NT-4/5 20 mg/kg, Day 1): 100.31% | body weight (db/db mice [3]; NT-4/5 20 mg/kg, Day 3): 39.10 | percentage change in body weight (db/db mice [3]; NT-4/5 20 mg/kg, Day 3): 96.01% | body weight (db/db mice [3]; NT-4/5 20 mg/kg, Day 5): 37.71 | percentage change in body weight (db/db mice [3]; NT-4/5 20 mg/kg, Day 5): 92.60% | body weight (db/db mice [3]; NT-4/5 20 mg/kg, Day 7): 36.00 | percentage change in body weight (db/db mice [3]; NT-4/5 20 mg/kg, Day 7): 88.38% | body weight (db/db mice [3]; NT-4/5 20 mg/kg, Day −1): 40.60 | HbA1c level decrease at T26 (db/db mice [1]): 30.4% | HbA1c T0 (db/db mice [1]): 5.81% | HbA1c T12 (db/db mice [1]): 5.82% | HbA1c % effect T12-T0 (db/db mice [1]): −0.2% | HbA1c T26 (db/db mice [1]): 4.08% | HbA1c % effect T26-T0 (db/db mice [1]): −30.4% | triglycerides levels T0 (db/db mice [2]): 1.51 mM | triglycerides levels T5 (db/db mice [2]): 0.73 mM | triglycerides % effect T5-T0 (db/db mice [2]): −48.8% | triglycerides levels T12 (db/db mice [2]): 0.84 mM | triglycerides % effect T12-T0 (db/db mice [2]): −40.9% | triglycerides levels T19 (db/db mice [2]): 1.07 mM | triglycerides % effect T19-T0 (db/db mice [2]): −28.0% | triglycerides levels T26 (db/db mice [2]): 1.13 mM | triglycerides % effect T26-T0 (db/db mice [2]): −25.2% | blood triglyceride levels relative to normal level (db/db mice [2]; normal level 1.2±0.08 mM in C57BL/6J mice): reduced to below normal level
